# Measured values taken from US20240093191A1, “COMPOSITIONS AND METHODS FOR TREATING DISEASE ASSOCIATED WITH DUX4 OVEREXPRESSION” (RESEARCH INSTITUTE AT NATIONWIDE CHILDREN'S HOSPITAL, priority 2021, published 2024).
# B1: H1.mir-675: commercially available H1 promoter mir-675 expression plasmid (SBI Biosciences) (nucleic acid)
# DNA: GAACGCTGACGTCATCAACCCGCTCCAAGGAATCGCGGGCCCAGTGTCACTAGGCGGGAACACCCAGCGCGCGTGCGCCCTGGCAGGAAGATGGCTGTGAGGGACAGGGGAGTGGCGCCCTGCAATATTTGCATGTCGCTATGTGTTCTGGGAAATCACCATAAACGTGAAATGTCTTTGGATTTGGGAATCTTATAAGTTCTGTATGAGACCACCCCCCAGGGTCTGGTGCGGAGAGGGCCCACAGTGGACTTGGTGACGCTGTATGCCCTCACCGCTCAGCCCCTGGGGAATTCTTCGATTCTGCTTTTTT
# Tested on: CDC6
# Assay: QPCR of CDC6 in transfected HEK293 cells
# Format: cell-based, human
# Details: 48 h, relative to U6.milacZ
# Experimental: The expression of SMAD1, SMAD5 and CDC6 was measured by QPCR in HEK293 cells using TaqMan probes specific to each investigated gene. To do that, U6.milacZ (negative control), H1.mir-675, U6.mir-675-3p or U6.mir-675-5p expressing constructs were transfected into HEK293 cells, and total RNA was extracted 48h after transfection. As a result, U6.mir-675-3p reduced SMAD1 levels by an average of 32±6% (P<0.044, ANOVA, N=3) and SMAD5 levels by an average of 35±6% (P<0.0013, ANOVA, N=3). On the other hand, H1.mir-675 and U6.mir-675-5p repressed CDC6 levels by an average of 38±4% (P<0.0034, ANOVA, N=3) and 36±7% (P<0.0048, ANOVA, N=3), respectively. Results were reported as relative gene expression (ΔΔCq)±SEM of three replicates (N=3) relative to gene expression in cells transfected with U6.milacZ, with each QPCR assay performed in triplicate. All results were quantified using as reference gene the house keeping gene RPL13A.
# Along with a previous study showing the beneficial effect of mir-675 on regeneration and differentiation of injured mouse skeletal muscles [Dey et al., Genes Dev. […] QPCR was used to measure the expression of SMAD1, SMAD5 and CDC6 in HEK293 cells using TaqMan probes specific to each investigated gene. […] All results were quantified using as reference gene the house keeping gene RPL13A. […]
molecule,measurement,value
B1,repression of CDC6 levels,38±4%
